Results reported in article doi:10.1101/2024.11.03.621760 (bioRxiv, 2024).

Biological target: the molecule itself
Experiment: crystal structure; HALC3_919 alone, 2.1 Å, space group P 21 3, PDB 9C7Z

B1: HALC3_919 (designed binder)
chain: MSGSEELLEELRELLERLQELLELIEQGKITPEQLREAIALLIEVLQILYEALRELAEQLQRLREELG
notes: also called HALC3_919 trimerization domain; source: E. coli, purified (Ni-NTA, SNAC cleavage, SEC)
  stoichiometry N: 3
